Data from the DeepSol protein solubility set.

Test: soluble on expression in E. coli; label from the status in PepcDB or PDB records

| Sequence | soluble on expression in E. coli |
| --- | --- |
| MPESIPQFYKRIQSCDLQSDTTYSKEKPYFNIFSRQCNFGTVQFSYREFYKVTLIIGVGKLYYADKWILVNRPALLFSNPLVPYAWESISEEQKGVFCIFNERFVQSEEKNGSLANTPLFKVTGDKVFFLDDTQVAKVLDIYTQMQEENQSDYVNKFDVLRCYLHLLIHTALKMQDSNRYESHLNASQRITELFIELLDRQFPIDYPHAVLNLRTPADYANRLSVHVNHLNKVIKDTTGKTTSEMIAERIIKECTQYLLHSNLSISEIAYSLGFETVSYFSKFYRKHTGKSPSEVRERTII | not soluble |
| EIKDTYNIGELSPGMTATFEGEVISALPIKEFKRADGSIGKLKSFIVRDETGSIRVTLWDNLTDIDVGRGDYVRVRGYIREGYYGGLECTANYVEILKKGEKIES | soluble |
| MAPKTIFITGANRGIGLGLVRELLKVPGVEALVAGARNIDGAKELQSLAKADARLHLIAVDVSNDGSLENSVKSVSGIVGDRGLNLLINNAGLIESYGTTSAPNRASVLHCIDVNAVSALLASQHFLPLLQKAASHVSGDSLTPDRAAIVNIGSDCASQALNLRGSGPSNSLLAYKMSKVAMLSFSRSMAADFKRLEIPVLITNIHPGWVQTDMGGSNAEISVDESVTKIVASIAKLNGGHQGGLFNRELEEMPL | not soluble |
| KVQTDPPSVPICDLYPNGVFPKGQECEYPPTQDGRTAAWRTTSEEKKALDQASEEIWNDFREAAEAHRQVRKYVMSWIKPGMTMIEICEKLEDCSRKLIKENGLNAGLAFPTGCSLNNCAAHYTPNAGDTTVLQYDDICKIDFGTHISGRIIDCAFTVTFNPKYDTLLKAVKDATNTGIKCAGIDVRLCDVGEAIQEVMESYEVEIDGKTYQVKPIRNLNGHSIGQYRIHAGKTVPIIKGGEATRMEEGEVYAIETFGSTGKGVVHDDMECSHYMKNFDVGHVPIRLPRTKHLLNVINENFGTLAFCRRWLDRLGESKYLMALKNLCDLGIVDPYPPLCDIKGSYTAQFEHTILLRPTCKEVVSRGDDY | soluble |
| MALAGAEVVVKMTPKSVAHVFKKEMSSLHTSLLHLKPSPFQATYLGLEMTIDHLQVVDFKMPKLSYETSASQSHMTFKLLGGSARLLGQYSAVYKTKREGQFEMIFEHFHMSVPVKRTALTKFTVASDECTLEVDESMITMSPVLPEQISAKIKSDLLDQLKEAACSNATQFFSKLNSHLIHFAEATDISQGGHPSHIDVELHFQNPTSEDDTAIHVDVTESVVNAELSKLYSSANTRFIWNDVPEIKELLKSCKTTECRFIEDGDIVSSFFDRPSIRIQSDNTVSLRLPLSTSLTTTNGKELFRIQTEVELNLEDIVLEHPENGEVFWSAKFHIKNIRILQTSSSRNFQKFATRMESWIEEHKLFMENLLNTYIQGSLPVHLRSPLAWTHRVHARPIFSTSSLSFHVHPHFSPSLRVLV | not soluble |
| MTLSRVSEMALSPDGKTAVYAVSFPDVKTNKATRELFTVNLDGSGRKQITDTESNEYAPAWMADGKRIAFMSNEGGSMQLWVMNADGTERRQLSNIEGGITGFLFSPDEKQVLFTKDIKFGKRTKDIYPDLDKATGRIITDLMYKHWDEWVETIPHPFIANATDGMITTGKDIMEGEPYEAPMKPWSGIEDFSWSPDGQNIAYASRKKTGMAYSLSTNSDIYIYNLASGRTHNISEGMMGYDTYPKFSPDGKSIAWISMERDGYESDLKRLFVADLATGKRTHVNPTFDYNVDMIQWAPDSKGIYFLACKEAETNLWEITLKTGKIRQITQGQHDYADFSVRNDVMLAKRHSFELPDDLYRVNLKNGAAQAVTAENKVILDRLTPITCEKRWMKTTDGGNMLTWVVLPPNFDKNKKYPAILYCQGGPQNTVSQFWSFRWNLRLMAEQGYIVIAPNRHGVPGFGQKWNEQISGDYGGQNMRDYLTAVDEMKKEPYVDGDRIGAVGASYGGFSVYWLAGHHDKRFAAFIAHAGIFNLEMQYATTEEMWFANWDIGGPFWEKDNVVAQRTYATSPHKFVQNWDTPILMIHGELDFRILASQAMAAFDAAQLRGVPSEMLIYPDENHWVLQPQNALLFHRTFFGWLDRWLKK | not soluble |
| MSLKTLNIYLMRHGKVDAAPGLHGQTDLKVKEAEQQRIAMAWKTKGYDVAGIISSPLSRCHDLAQILAEQQLLPMTTEDDLQEMDFGDFDGMPFDLLTEHWKKLDAFWQSPAHHSLPNAESLSTFSQRVSRAWSQIINDINDNLLIVTHGGVIRIILAHVLGVDWRNPQWYSTLAIGNASVTHITITIDDQIYASVRSIGVPLVEEGHHHHHH | soluble |
| MVDKNSLRKLMLLKRAELNDLEKSHLDQKINQKLMAFLITRPTIKNLALYIPIKNEVAFLDNFLDFLKLNKITSCFPSIVDQFNMKFIDQNNNEINPNDIDCFFIPLLAFNKANHRIGFGKGYYDRYLSLTSKKQLKIGIAYDFQYAEFTNDPWDYQLDLIICNGMAGDPLEHHHHHH | soluble |
| MGHHHHHHSHMFLQYYLNEQGDRVYTLKKFDPMGQQTCSAHPARFSPDDKYSRHRITIKKRFKVLMTQQPRPVL | not soluble |
| GFVNVTGMFRDRARTNRADGNQLILFDQSDFPNGVAPPSGFPFAYPQVAGIIGEEAAQNARRIDNQILNQRGLERSDFQFRVGQSAVQQRAVFLNSEVGLGNDATLYAFGGLSYKNGIGAPFRRLPFSTSAMPYRASNTDPALFPNGFQPEMNSDVVDQSLTIGVEGTIGGWTWDLSNSYGRNSLDYQMDNTVNASLLQASPTSIYAGGHAFSQNVTNLDVSRFFDDALAGINVAFGGAYRTDRYQIFSGEEASYRNYGRVQLIDDTSAASPRLVTRDTLGKEPGTQGFVGFRPENEVDRTRSNVAAYLDTEVNLTENLLVTAAGRYENYSDFGGTLNGRLAARWGLLDGRLNLRGSASTGFRAPSLHQIYFNEVRT | not soluble |
| DNPLESPPPEIVKQGKEAVRQYFQSIEEARSKGEALVHLQEIKVHLIGDGMAGKTSLLKQLIGETFDPKESQTHGLNVVTKQAPNIKGLENDDELKECLFHFWDFGGQEIMHASHQFFMTRSSVYMLLLDSRTDSNKHYWLRHIEKYGGKSPVIVVMNKIDENPSYNIEQKKINERFPAIENRFHRISCKNGDGVESIAKSLKSAVLHPDSIYGTPLAPSWIKVKEKLVEATTAQRYLNRTEVEKICNDSGITDPGERKTLLGYLNNLGIVLYFEALDLSEIYVLDPHWVTIGVYRIINSSKTKNGHLNTSALGYILNEEQIRCDEYDPAKNNKFTYTLLEQRYLLDIMKQFELCYDEGKGLFIIPSNLPTQIDNEPEITEGEPLRFIMKYDYLPSTIIPRLMIAMQHQILDRMQWRYGMVLKSQDHEGALAKVVAETKDSTITIAIQGEPRCKREYLSIIWYEIKKINANFTNLDVKEFIPLPGHPDELVEYKELLGLEKMGRDRYVSGKLEKVFSVSKMLDSVISKEERNKER | soluble |
| MIEQCWSEIQEEQSPTSQIGQLRVQGLRDKRVIVEYIPLILKTFLLSKTSGVGPLIIPVRCFTCGKVIGDKYYEFKRRVEAGEDPEKVLDDLGLERYCCRRMLLSHVELIDDIMHYKVY | soluble |
| MSLEHAAEILANRYVRGDALTNPDATKEYVRCKLGSYEREVFALLLLDNQNRLIEFKELFQGTVDAASVYPREVVKAVLEVNAAAVIFAHNHPSGDSTPSQADRRITERLKDTLALVDVRVLDHIVTGDTCTSFAERGWLEGHHHHHH | not soluble |
| MSLHLNVAQQLYNAEITAGSLLLKESRAIAQLLLQSADETAWRQAIAIDNILQKTSPASAKRMSSLIRKRLELMPRELWSMIADGTTEVAIQSLMAAAIKHSRLLGDFMLKVLQRHYREFNPKILSREWDSFLAECAHIDPAVASWSQSTRKKVGQVAYRILSEAGYLDNTRSLKLQPVLIAPEVSKFLNSHDEKYILKCMEIAHEEGHHHHHH | soluble |
| MDWDLITERNIQLFIQLAGLAERPLATNMFWRQGQYETYLNYHNGRIHLCQILKQTFLDEELLFKALANWKPAAFQGIPQRLFLLRDGLAMSCSPPLSSSAELWLRLHHRQIKFLESQCVHG | not soluble |
| MPFKPLVTAGIEGLLNTFLYRSPALKSARTRLQGKVLCVKLKGFSMPLVLVFSERQVDVLGAWEGEADCTVITQASVLPKLRDRQQLATLIRSGELEVQGDIQVVQNFVALADLAEFDPAELLAPYTGDIAAESIGKVVRGGAKFLRHGFQRQQRYAAEAITEEWRMAPGPLEVAWFAEETAAVERAVDSLTTRLEKLEAK | not soluble |
| GSHMEVNLRMSWWGGNGRHQVTLKALEEFHKQHPNINVKAEYTGWDGHLSRLTTQIAGGTEPDVMQTNWNWLPIFSKDGTGFYNLFSVKEQLDLAQFDPKELQQTTVNGKLNGIPISVTARIFYFNDATWAKAGLEYPKTWDELLAAGKVFKEKLGDQYYPVVLEHQDTLALIRSYMTQKYNIPTIDEANKKFAYSPEQWVEFFTMYKTMVDNHVMPSTKYYASFGKSNMYEMKPWINGEWAGTYMWNSTITKYSDNLTKPAKLVLGPYPMLPGAKDAGLFFKPAQMLSIGKSTKHPQESAMLINFLLNSKEGVEALGLERGVPLSATAVTQLRASGVIKDEDPSVAGLNMALELPHKMTTSPYFDDPQIVSLFGDAIQYIDYGQKTVQETAEYFNKQGDRILKRAMR | soluble |
| MSEVYRLTCIVCPLSCSIEVEIEAGKIKDIKGYTCPRGKEWAIEEIRAPKRVVMSVIPVEGGKLPTVSVKTEKPIPKDKIPELMKMLAKLKLKAPVKVGQVVGEFEGVKIIATREALEHHHHHH | not soluble |
| METGTPLIAETIALTEKKVAMALDDIIKLAKRKTNVNKGKKPRREKNKNQNFNGAARNNTSNVRHHMNSLSAVRQGAVGKRRSRFQGIQFPVTTNIARKASTAAPLDFRGRAFNGGRMTSANQSRLIAPPVQNISVQARVNAKRHEVDQKVEHRGGKRKTLDSRFASMKEQRMTINNYGVTVQVPRLPPWVRARRFSQ | not soluble |
| MLLQELHIYSEQSSSNTKVSIKNKDGEILFEYCYSNDAIPTFNPIELLRLSLEGDIGVLFQMKTSISQKSKKDDFRISCEQSRSETSRMNQ | not soluble |
| MGSDKIHHHHHHMTLWQPDPALIRRPAYQSLADQFARAIHDGRLANGARLPTHRRLADDLNLSVQTVSRAYEELIRRGLISGEIGRGSFVQTQRREPEPPYLPERLGEVIDLSILKPVCEPMHLERLKQALGWLAENLPSSSALSFRPNMVFPRHRAVAVEWLKLCGLDISAQNISLTNGATAGMTVALMSVAPPGSTVATEAIGHHTLVPLARYLGFNLQGLPIDDNGLIPEALDEACRLSDIRAVFVQPSVINPTATLMDAQRREQIAAVARKHDIAIIENDVLGPLVEDRPPPVAAFAPERTLYVTSFTKITVPGLRIGYLAAPDRYVAAVANRHLVSNWMATPLVAEIATKWVTDGTAMELVLWQRAALRRRQDIAAEVLARIDYRARRDGLHIWLQLPDDRAEEGFVAQARLQGVAIAPGTSFRISDAPWHPAVRISLGSTTEGELRAGLGVVTKLLLGDPEHLLLAI | not soluble |
| SMGGRRAVRVWCDGCYDMVHYGHSNQLRQARAMGDYLIVGVHTDEEIAKHKGPPVFTQEERYKMVQAIKWVDEVVPAAPYVTTLETLDKYNCDFCVHGNDITLTVDGRDTYEEVKQAGRYRECKRTQGVSTTDLVGRMLLVTKAHHSSQEMSSEYREYADSFGKCPGGRNPWTGVSQFLQTSQKIIQFASGKEPQPGETVIYVAGAFDLFHIGHVDFLEKVHRLAERPYIIAGLHFDQEVNHYKGKNYPIMNLHERTLSVLACRYVSEVVIGAPYAVTAELLSHFKVDLVCHGKTEIIPDRDGSDPYQEPKRRGIFRQIDSGSNLTTDLIVQRIITNRLEY | soluble |
| MSLIKFNIAQWRAWAPGLESVDAWQAWSRQPALPENSDAAPDVSFLPAMQRRRLSRLARMAFSVGWPLAEGLEQLPLVFISRHGETPRTFEILSDLAAEQPLSPTQFSLSVHNAVIGLWSIMRGETSEMTALAAAGDGLEHGLLEAATLLADGAPHVLLVITEEQPPEAYASWIDDVPFPYALGLLLTPGDDWQLSLGSHDGQTPRAQWPHALNLLRTLLGAQTFCQHAWMNRVWTWQRNHEGHHHHHH | soluble |
